Results as given in US8221990B2, “Screening GPR12 receptor for substances having Nesfatin-1-like action, or which regulate Nesfatin-1 action” (Teijin Pharma Limited, priority 2007, dated 2012).

Target: T1, GPR12 (Mus musculus, UniProt P35412)
T1 construct: in which GPR12 was endogenously expressed; endogenous in cells; host or cells: NB41A3 cells (ATCC-CCL147), mouse brain neuroblastoma
T1 sequence (P35412 1-334): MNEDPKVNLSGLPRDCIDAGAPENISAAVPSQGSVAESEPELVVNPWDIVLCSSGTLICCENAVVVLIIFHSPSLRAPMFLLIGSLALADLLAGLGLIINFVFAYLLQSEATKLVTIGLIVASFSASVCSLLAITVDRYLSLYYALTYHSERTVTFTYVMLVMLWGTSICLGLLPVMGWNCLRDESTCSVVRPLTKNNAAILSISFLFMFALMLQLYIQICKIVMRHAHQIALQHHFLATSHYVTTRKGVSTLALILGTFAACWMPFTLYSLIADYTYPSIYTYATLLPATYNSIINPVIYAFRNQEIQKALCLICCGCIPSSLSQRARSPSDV
Test: Expression of a CRE-reporter gene (pCRE-Luc luciferase) in NB41A3 cells expressing GPR12 endogenously
Type: cell-based
Conditions: NB41A3 cells transfected with pCRE-Luc, 10^-10 M, 16 hours
Procedure: NB41A3 cells (ATCC-CCL147), a cell strain derived from mouse brain neuroblastoma, in which GPR12 was endogenously expressed were used. The confluent NB41A3 cells were recovered in a 10-cm dish, plated onto 10 cm-dishes after dividing the cell colony in four quarters, and cultured for one day in Ham's F12K medium. The cells were transected with 5 μg of the reporter plasmid pCRE-Luc (Stratagene Corporation, Catalog No. 219074) in which TATA-BOX and luciferase were incorporated into downstream of CRE by a calcium phosphate method. The cells were washed with Ham's F12K medium 16 hours after the transfection. Ham's F12K medium containing no test substance (Vehicle), Ham's F12K medium containing 10^−10 M of Nesfatin-1 M30 (Mid-Segment: SEQ ID NO: 11), Ham's F12K medium containing 10^−10 M of a modified peptide M30_Ag-A (SEQ ID NO: 50) (M30_Ag-A), and Ham's F12K medium containing 10^−10 M of a modified peptide M30_MSH-A (SEQ ID NO: 51) […] were added to the cells, and the resultant mediums were cultured under the conditions of 37° C. and 5% CO2 for 16 hours. After the culturing, the cells were washed twice with phosphate-buffered saline (PBS), lysed with 4 mL of lysis buffer (an aqueous solution containing 25 mM of glycylglicine (pH 7.8), 15 mM of magnesium sulfate, 4 mM of glycol ether diaminetetraacetic acid (EGTA), 1 mM of dithiothreitol (DTT), and 1% (volume/volume) of Triton X-100). […] After adding 200 μL of 0.2 mM of d-luciferin to the diluted cell lysate, the luminescence was measured for 10 seconds by a luminometer, and the amount of luminescence (units) was determined. Further, the amount of protein in each cell lysate was measured by BCA™ Protein Assay Kit-Reducing Agent Compatible (Pearce, Catalog No. 23250), and the value obtained by dividing the amount of luminescence (units) by the amount of protein (μg) in a sample was determined as a luciferase activity. […] The cells were cultured for 16 hours, and then the level of luciferase activity was also determined.

luciferase activity compared with Vehicle: enhanced
Substance: Nesfatin-1M30: mid-segment of Nesfatin-1, human-derived Nesfatin-1M30, SEQ ID NO: 11 (PDTGLYYDEYLKQVIDVLETDKHFREKLQK; listed as Homo sapiens)
